From the nanobody polyreactivity screen of Harvey et al. (2022)

Experiment: yeast display, Sf9 membrane polyspecificity reagent, FACS + sequencing; frameworks hold sequencing errors
In short: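 Galactose-induced (36–48 hours) yeast carrying a synthetic nanobody display library were exposed to 10% biotinylated, detergent-solubilized Sf9 membrane reagent at 4 °C for 1 hour. FACS followed streptavidin microbead enrichment, using low and high (top ~1%) gates for expression (anti-HA) and reagent binding (streptavidin). Colony PCR, MiSeq 2 × 250 sequencing and CDR-length filtering followed. Labels for polyreactivity reflect the gate of origin.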
For “QVQLVESGGGLVQAGGSLRLSCSASGSTSYYYAMGWYRQAPGKERELVATISTTGAGTYYADSVKGRFTISRDNAKTTVYLQMNILKPEDTAVFYCAKDGKASRDDAEYYYWGQGTQVTVSS”, the “polyreactivity (PSR sort gate)” value was “low polyreactivity”.
For “QVQLVESGGGLVQAGGSLRLSCAASGFILYGNAMGLYRQAPGKERELVAAISRRGGSTYYADSVKGRFTISRDNAKNTVYLQMNSLKPEDTAVYYCAKDGPGGGTRIYEYWGQGTLVTVSS”, the “polyreactivity (PSR sort gate)” value was “high polyreactivity”.
With “QVQLVESGGGLVQAGGSLRLSCAASGSTFVRNAMGWYRQPPGKDRELVAAISWRGGSTYYADTVKGRFTISRDNAKNTVYLQMNSLKPEDTAVYYCNKVGTWQGPYDYWGQGTQVTVSS” the “polyreactivity (PSR sort gate)” value was “high polyreactivity”.
For “QVQLVESGGGLVQAGGSLRLSCAASGRIFYPYAMGWYRQAPGKERELVAAITTSSARTYYADSVKGRFTISRDNAKNTVYLQMNSLKPEDTAVYYCAVKRGYYTTYRGYGYWGQGTQVTVSS”, the “polyreactivity (PSR sort gate)” value was “high polyreactivity”.
For “QVQLVESGGGLVQAGGSLRLSCAASGIIFFAYAMGWYRQAPGKERELVAAISSSGGRTYYSDSVKGRFTISRDNAKNTVYLQMNSMIPEDTAVYYCTARWHGSFDYWGQGTQVTVSS”, the “polyreactivity (PSR sort gate)” value was “low polyreactivity”.
In the case of “QVQLVESGGGLVQAGGSLRLSCADSGFTFYLYAMGWYRQAPGKERALVAAITGSGGSKYYADSVKGRFTISRYNAKNTVYLQMNSLKPEDTAVYYCAAVFKDSRYQYGFGYDYWGQGTQVTVSS”, the “polyreactivity (PSR sort gate)” value is reported as “high polyreactivity”.
With “QVQLVESGGGLVQAGGSLRLSCAASGIIFTANVMGWYRHAPGKERELDAVISLSGGITFYADSVKGRFTISRDNAKNTVYLQMNSLKPEDTAVYYCAAEPWYSWKTEEDYWGQGTQVTVTS” the “polyreactivity (PSR sort gate)” value was “low polyreactivity”.
For “QVQLVESGGGLVQAGGSLRLSCAASGRIFLYTAMGWYRQAPGKERELVAAIDGGGTTYADSVKGRFTISRDNAKNTVYLQMNSLKPEDTAVYYCAGDWYYQYSIYRYGYWGQGTQVTVSS”, the “polyreactivity (PSR sort gate)” value was “low polyreactivity”.
With “QVQLVESGGGLVQAGGSLRLSCAASGFTFIGYAMGWYRQAPGKERELVAAITWRGGRTYYADSVKGRFTISRDNAKNTVYLQMNSLKPEDTAVYYCAADGYTVVNSYYWGQGTQVTVSS” the “polyreactivity (PSR sort gate)” value was “high polyreactivity”.
For “QVQLVESGGGLVQAGGSLRLSCAASGRIFDHYAMVWYRQAPGKERELVAAITRSGGITYYADSVKGRFTISRDNAKYTVYLQMNSLKPEDTAVYYCAALSYRYTDNFDYWGQGTQVTVSS”, the “polyreactivity (PSR sort gate)” value was “low polyreactivity”.
In the case of “QVQLVESGLGLLQAGGSLRLSCAASGFIFRLYTMGRYREAPGKVRELVASISSAGSTNYADSVKGRFTISLDNAKNTVYLQMNSLKPDDTAVYDCDKYYGQFYPPTLGYWGQCTQVTVSS”, the “polyreactivity (PSR sort gate)” value is reported as “low polyreactivity”.
With “QVQLVESGGGLVQAGGSLRLSCAASGRTFTEYAMGWYRQAPGKEREFVARIRWSDGSTYYADSVKGRFTISRDNAKNTVYLQMNSLLPEDTAVYYCAARYIETPVTVLSLMDYWGQGTQVTVSS” the “polyreactivity (PSR sort gate)” value was “low polyreactivity”.
With “QVQLVESGGGLVQARGSLRLSCAASGSIFINNTRGWYRQAPGIEREWVAAISITGGSTYYADSVKGRFTISRDNAKNSVYLQMNSLKPEDTAVDYCAADPLQLYDYNYWGQGTQVTVSS” the “polyreactivity (PSR sort gate)” value was “low polyreactivity”.
In the case of “QVQLVESGGGLVQAGGSLRLSSAASGRIFYRNAMGWYRQAPGKEREMVAAINWSGGSTYYADSVKGRFTISRDNAKNSVYLQMNSLKPEDTAVYYCAAKPGKTPLTGDRGPYDTGYGYWGQGTQVTVSS”, the “polyreactivity (PSR sort gate)” value is reported as “low polyreactivity”.
With “QVQLVESGGGLVQAGGSLRLSCAASGRTFRYYALGWYRQAPGKERELVASITGSGGSTTYADSVKGRFTISRDNAKNTVYLLMNSLKPEDTAVYYCAVRYPYYSYRAKLGYWGQGTQVTVSS” the “polyreactivity (PSR sort gate)” value was “high polyreactivity”.
In the case of “QVQLVESGGGLVQAGGSLRISCAAYGSTFGPYAMGWYRQAPGKERELVAAITWNGGSTYYADSVKGRFTISRDNAKNTVYLQMTSLKPEDTAVYYCAAKAYGRKGTYRVNYWGQGTQVTVSS”, the “polyreactivity (PSR sort gate)” value is reported as “high polyreactivity”.
With “QVQLVESGGGLVQAGGSLRLSCAASGRIFLYNGMGWYRQAPGKERELVAGITTGGNTNYADSVKGRFTISRDNAKNTVYLQMNSLKPEDTAVYYCAAEVIVYGWSPDYDYWGQGTQVTVSS” the “polyreactivity (PSR sort gate)” value was “low polyreactivity”.
With “QVQHVESGGGLVQAGGSLRLSCAASGITFKPNAMGWSRHAPGKERELVAAIDSGGSTNYAYSVKGRFTISLDNAKNTVYLQMNSLKPEDTAVYYCAAPYQDRDLQVSYSTYEGGYWGQGTQVTVSS” the “polyreactivity (PSR sort gate)” value was “low polyreactivity”.
With “QVQLVESGGGLVQAGGSLRLSCAASGSILGQNGMGWYRQAPWKERELVAGITWSGGSTYYADSVKGRFTISRDNAKNTVYLQMNSLKPEDTAVYYCARRGYYAPYYYWGQGTQVTVSS” the “polyreactivity (PSR sort gate)” value was “high polyreactivity”.
For “QVQLVESGGGLVQAGGSLRLSCAASGSIFAYYAMGRNRQAPGKERELVAAITFSGVSTYYADSVKGRFTISRDNAKNTVYLQMNILKPEDTAVYYCAADPYQNYWWWYDYWGQGTQVTVSS”, the “polyreactivity (PSR sort gate)” value was “low polyreactivity”.
With “QVQLVESVGGLDQARGSLRLSCAASGFIYRYYPMGWYRQSPGKERELVASIDWSGGNTYYADSVKGRFTISRDKAKYTVYLQMNSLKPEDTAVYYCNRRGMDWGLGTQVTVSS” the “polyreactivity (PSR sort gate)” value was “low polyreactivity”.
For “QVQLVESGGGLVQAGGSLRLSCAASGFTFQYYAMGWYRQAPGKERELVAAISWSGGRTYYADSVKGRFTISRDNAKNSVYLQMNSLKPVDTAVYYCAAQWYKWAYNNTLLRYYYWGQGTQVTVSS”, the “polyreactivity (PSR sort gate)” value was “high polyreactivity”.
With “QVQLVETGGGIVQAGGSLRLSCAASGFTFFRNAMGWYRQAPGKERELVAAISGSGGSTYYADSVKGRFTISRDNAKNKVYLQMNSLKPEDTAVYYCNAQKQIREPGNERLNYWGQGTQVTVSS” the “polyreactivity (PSR sort gate)” value was “low polyreactivity”.
With “QVQLVESGGGLVQAGGSLRLSCAASGRTFRGYAMGWYRQAPGKERELVAAISSSGGRTYYADSVKGRFTISRDNAKNTVYLQMNSLKPEDTAVYYCAAAVTLSPAQYGYWGQGTQVTVSS” the “polyreactivity (PSR sort gate)” value was “high polyreactivity”.
With “QVQLVDSGGGLVQAGGSLRLSCAGSGLTFRFYAMVWYRQAPGKEREFVAAISSSGTTTYYADSVKGRFTISRDNAKNTVYLQMNSLKPEDTADFYCNKEYTTYGYDLEYDFWGQGTQVTVSS” the “polyreactivity (PSR sort gate)” value was “low polyreactivity”.
With “QVQLVESGGGLVQAGGSLRLSCAASGRIFRSYAMGWYRQAPGKERELVAAINYGGTSTYYADSVKGRFTISRDNAKNTVYLQMNSLKPEDTAVYYCAARRPTSPRRYESRGQGTQVTVSS” the “polyreactivity (PSR sort gate)” value was “high polyreactivity”.
For “QVQLVESGGGLVQAGGSLRVSCAASGSIFDSNAMGWYRQAPGKERELVASITSSGGSTYYADSVKGRFTISRDNAKNTVYLQMNSLKPEDTAVYYCAKRAWTGYGYYYWGQGTQVTVSS”, the “polyreactivity (PSR sort gate)” value was “high polyreactivity”.
In the case of “QVQLVESGGGLVQAGGSLRLSCAASGRIFRFYAMGWYRQAPGKERELVAAISSRGGSTYDADSVKGRFTISRDNAKNTVYLQMNSLKPEDTAVYYCNAYGSTSQMDYWGQGTQVTVSS”, the “polyreactivity (PSR sort gate)” value is reported as “high polyreactivity”.
In the case of “QVQLVESGGGLVQAGGSLRLSCAASGRILTYYAMGWYRPAPGKERELVAAISWRAGSTYYADSVKGRFTISRDNAKNTVYLQMNSLKPEDTAVYYCAADLPYWYNRKPIFPYYYWGQGTQVTVSS”, the “polyreactivity (PSR sort gate)” value is reported as “high polyreactivity”.
In the case of “QVQLVESGGGLVQAGGSLRISCAASGTTFPYNGMGWYRQAPGKERELVASISWSGASTYYADSVKGRFTISRDNAKNTVYLQMNSLKPEDTAVYYCAADPGYYSWGSSQDDYWGQGTQVTVSS”, the “polyreactivity (PSR sort gate)” value is reported as “low polyreactivity”.
In the case of “QVQLLESGGGLVQAGGSLRLSCAASGRIFGSNAMGWYRQAPGKERELVAAITRGGSTNYADSVKGRFTISRDNAKNTVYLQMNSLKPEDTAVYYCAVRWYRKYNYWGQGTQVTVSS”, the “polyreactivity (PSR sort gate)” value is reported as “high polyreactivity”.
In the case of “QVQLVESGGGLVQAGGSLRLSCAASGSTFQFYAMGWSRQAPGKERELVATISSGDSTNYADSVKGRFTISRDNAKNTVYLQMNSLKPEDTAVYYCAADFWGQYQGLDGGDYWGQGTQVTVSS”, the “polyreactivity (PSR sort gate)” value is reported as “low polyreactivity”.
For “QVQLVESGGGLVQAGGSHRLSCAAYGSTFFPNCMGWYRQAPGKERELVAAITSGGSTYADSVKGRFTISRDNAKNTVYLQMNSLKQEDTAFYYCAADSRQGFLLYGYWGQATQVTVSS”, the “polyreactivity (PSR sort gate)” value was “low polyreactivity”.
For “QVQLVESGGGLVQAGGSLRLSCAASGIIIYYNTMGWYRQAPGKEREFVDAISNSGGRTYYADSVKGRFTISRDNAKNTVYLQMNSLKPEDTADYYCAATYRQYSRSPWYYYCGQGTQVTVSS”, the “polyreactivity (PSR sort gate)” value was “high polyreactivity”.
For “QVQLVESGRGLGQAGGSLRLSCAASVSTFDKYDKGRSRQAPGKEREFVAAISSTGASTYYADSVKGRFTISRDNAKNTVYLQMNSLKPEDTAVYYCAADVPVGYGDDYWGQGTQVTESS”, the “polyreactivity (PSR sort gate)” value was “low polyreactivity”.
With “QVQLVESGGGLVQAGGSLRLSCAASGFIFYEYAMGWYRQAPGKERELVARITRSDGSTYYADSVKGRFTISRDNAKNTVYFQMNSLKPEDTAVYYCNVRRAYYRRGPYYSTYYYWGQGTQVTVSS” the “polyreactivity (PSR sort gate)” value was “high polyreactivity”.
For “QVQLVESGGGIVQAGGSLRLSCAASGFTFDYNTMGWYRQAPGKERELVAAISWSGGSTYYADSVKGRFTISRDNAKNTVYLQMNSLKPEDTAVYYCAAAWSYRYELYYCGQGTQVTVSS”, the “polyreactivity (PSR sort gate)” value was “low polyreactivity”.
In the case of “QVQLVESGGGLVQAGGSLRLSCAASGIIFVRNAMGWYRKAPGKERELVAAISRSGGSTYYADSVKWRFTISRDNAKNTVYLQMNSLKPEDTAVYYCAAVLRLSSGYDYWGQGTQVTVSS”, the “polyreactivity (PSR sort gate)” value is reported as “high polyreactivity”.
In the case of “QVQLVESGGGLVQAGGSLRLSCAASGIIFIGNAMGWYRQAPGKERELVAAIRSGTGTNYADSVKGRFTISRDNAKNTVYLQMNSLKPEDTAVYYSNADYNSGTYTQGTHEGDYWGQGTQVTVSS”, the “polyreactivity (PSR sort gate)” value is reported as “low polyreactivity”.
In the case of “QVQLVESGGGLVQAGGSLRLSCAASGFIFGTYAMGWYRQAPGKERELVAAISVGGGSTYYADSVKGRFTISRDNAKNSVYLQMNSLKPEDTAVYYCNALYNDHFSWFSFGYWGQGTQVTVSS”, the “polyreactivity (PSR sort gate)” value is reported as “low polyreactivity”.
With “QVQLVESGGGLVQAGGSLRLSCAASGYIFSLYAMGWYRQAPGKERELLADITTSAGSTYYADSVKGRFTISRDNAKNTVYLQMISLKPEDTAVYYCAAAVYGHSYYDYDYWGLGTQVTVSS” the “polyreactivity (PSR sort gate)” value was “low polyreactivity”.
In the case of “QVQHEESRRGLVQAGVSLRLRCAASGYTFRVYLMGCYRQAPGKERELVAAITYSGGRTYYADSVKGRFTISRDNAKNTVYLQMNSLKPVDTAVYYCAAERPWYGRDRGFDYWGQGTQVTVSS”, the “polyreactivity (PSR sort gate)” value is reported as “high polyreactivity”.
With “QGQLVESGGGLVQAGGSLRLTCAASGRIFKWYAMGWYIQETGKERELVAAISSAGSTYYADSVKGRFTISRDNAKNTVYLQLNSLKPEDTAVYYCAARKYTFRRKSRYGYWGQGTQVTVSS” the “polyreactivity (PSR sort gate)” value was “high polyreactivity”.
